One block for each binder: values may come before it. Numbered stars: 1 amine (or outer) side, 2 acyl side, 3 side chain; on linkers, the order of the positions; unused ones are H or OH. * marks the point of attachment. C20 diacid = O=C(O)CCCCCCCCCCCCCCCCCCC(=O)*; C18 diacid = O=C(O)CCCCCCCCCCCCCCCCC(=O)*; γGlu = O=C(O)[C@H](CCC(=O)[*:2])N[*:1]
How the values were obtained:
[1] = biological target: T1, human calcitonin receptor (human, UniProt P30988 25-474); assay: cell-based or functional assay
T1 sequence (looked up): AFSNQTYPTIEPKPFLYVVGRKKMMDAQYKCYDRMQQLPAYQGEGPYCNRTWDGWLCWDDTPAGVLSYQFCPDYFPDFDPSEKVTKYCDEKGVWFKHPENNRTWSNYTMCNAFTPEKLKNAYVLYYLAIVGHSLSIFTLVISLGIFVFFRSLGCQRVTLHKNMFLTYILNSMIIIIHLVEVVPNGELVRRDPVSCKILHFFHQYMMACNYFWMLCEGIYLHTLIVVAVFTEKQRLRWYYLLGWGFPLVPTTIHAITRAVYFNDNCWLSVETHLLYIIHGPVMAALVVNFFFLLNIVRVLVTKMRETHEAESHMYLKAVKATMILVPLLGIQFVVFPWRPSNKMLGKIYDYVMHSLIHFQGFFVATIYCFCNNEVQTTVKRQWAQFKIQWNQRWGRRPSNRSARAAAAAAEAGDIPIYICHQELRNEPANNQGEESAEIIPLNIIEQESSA

[2] = biological target: T2, human amylin 3(a) receptor (human calcitonin receptor co-expressed with RAMP-3) (human, UniProt P30988 25-474; O60896 24-148, limits assumed); assay: cell-based or functional assay
T2 sequence (looked up) 1: T1 sequence (looked up)
T2 sequence (looked up) 2: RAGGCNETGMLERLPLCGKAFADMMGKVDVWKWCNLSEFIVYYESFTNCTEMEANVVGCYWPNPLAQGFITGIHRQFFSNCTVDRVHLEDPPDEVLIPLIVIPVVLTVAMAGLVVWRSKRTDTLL

- hCTR funct. EC50 (pM) [1]: 8 pM
- hAmylin-R funct. EC50 (pM) [2]: 11 pM
B2: [N-terminal(C18 diacid-gGlu), des1, 5V, 9V, 10V, 30S, 31G]mimylin (peptide)
peptide: {C18 diacid-γGlu}-ASEVSTAVVGRLSAELHELATLPRTETGSGSP-NH2
SMILES: CC(C)C[C@H](NC(=O)[C@H](CCC(=O)O)NC(=O)[C@H](Cc1c[nH]cn1)NC(=O)[C@H](CC(C)C)NC(=O)[C@H](CCC(=O)O)NC(=O)[C@H](C)NC(=O)[C@H](CO)NC(=O)[C@H](CC(C)C)NC(=O)[C@H](CCCNC(=N)N)NC(=O)CNC(=O)[C@@H](NC(=O)[C@@H](NC(=O)[C@H](C)NC(=O)[C@@H](NC(=O)[C@H](CO)NC(=O)[C@@H](NC(=O)[C@H](CCC(=O)O)NC(=O)[C@H](CO)NC(=O)[C@H](C)NC(=O)CC[C@H](NC(=O)CCCCCCCCCCCCCCCCC(=O)O)C(=O)O)C(C)C)[C@@H](C)O)C(C)C)C(C)C)C(=O)N[C@@H](C)C(=O)N[C@H](C(=O)N[C@@H](CC(C)C)C(=O)N1CCC[C@H]1C(=O)N[C@@H](CCCNC(=N)N)C(=O)N[C@H](C(=O)N[C@@H](CCC(=O)O)C(=O)N[C@H](C(=O)NCC(=O)N[C@@H](CO)C(=O)NCC(=O)N[C@@H](CO)C(=O)N1CCC[C@H]1C(N)=O)[C@@H](C)O)[C@@H](C)O)[C@@H](C)O

- hCTR funct. EC50 (pM) [1]: 34 pM
- hAmylin-R funct. EC50 (pM) [2]: 50 pM
B3: [N-terminal(C20 diacid-gGlu), des1, 21S, 23Y, 30S, 31G, 33Y]mimylin (peptide)
peptide: {C20 diacid-γGlu}-ASELSTAALGRLSAELHELSTYPRTETGSGSY-NH2
SMILES: CC(C)C[C@H](NC(=O)[C@H](C)NC(=O)[C@H](C)NC(=O)[C@@H](NC(=O)[C@H](CO)NC(=O)[C@H](CC(C)C)NC(=O)[C@H](CCC(=O)O)NC(=O)[C@H](CO)NC(=O)[C@H](C)NC(=O)CC[C@H](NC(=O)CCCCCCCCCCCCCCCCCCC(=O)O)C(=O)O)[C@@H](C)O)C(=O)NCC(=O)N[C@@H](CCCNC(=N)N)C(=O)N[C@@H](CC(C)C)C(=O)N[C@@H](CO)C(=O)N[C@@H](C)C(=O)N[C@@H](CCC(=O)O)C(=O)N[C@@H](CC(C)C)C(=O)N[C@@H](Cc1c[nH]cn1)C(=O)N[C@@H](CCC(=O)O)C(=O)N[C@@H](CC(C)C)C(=O)N[C@@H](CO)C(=O)N[C@H](C(=O)N[C@@H](Cc1ccc(O)cc1)C(=O)N1CCC[C@H]1C(=O)N[C@@H](CCCNC(=N)N)C(=O)N[C@H](C(=O)N[C@@H](CCC(=O)O)C(=O)N[C@H](C(=O)NCC(=O)N[C@@H](CO)C(=O)NCC(=O)N[C@@H](CO)C(=O)N[C@@H](Cc1ccc(O)cc1)C(N)=O)[C@@H](C)O)[C@@H](C)O)[C@@H](C)O

- hCTR funct. EC50 (pM) [1]: 24 pM
- hAmylin-R funct. EC50 (pM) [2]: 64 pM
B4: [N-terminal(C20 diacid-gGlu), des1, 12H, 25H, 30T, 31G, 32T]mimylin (peptide)
peptide: {C20 diacid-γGlu}-ASELSTAALGHLSAELHELATLPHTETGTGTP-NH2
SMILES: CC(C)C[C@H](NC(=O)[C@H](C)NC(=O)[C@H](C)NC(=O)[C@@H](NC(=O)[C@H](CO)NC(=O)[C@H](CC(C)C)NC(=O)[C@H](CCC(=O)O)NC(=O)[C@H](CO)NC(=O)[C@H](C)NC(=O)CC[C@H](NC(=O)CCCCCCCCCCCCCCCCCCC(=O)O)C(=O)O)[C@@H](C)O)C(=O)NCC(=O)N[C@@H](Cc1c[nH]cn1)C(=O)N[C@@H](CC(C)C)C(=O)N[C@@H](CO)C(=O)N[C@@H](C)C(=O)N[C@@H](CCC(=O)O)C(=O)N[C@@H](CC(C)C)C(=O)N[C@@H](Cc1c[nH]cn1)C(=O)N[C@@H](CCC(=O)O)C(=O)N[C@@H](CC(C)C)C(=O)N[C@@H](C)C(=O)N[C@H](C(=O)N[C@@H](CC(C)C)C(=O)N1CCC[C@H]1C(=O)N[C@@H](Cc1c[nH]cn1)C(=O)N[C@H](C(=O)N[C@@H](CCC(=O)O)C(=O)N[C@H](C(=O)NCC(=O)N[C@H](C(=O)NCC(=O)N[C@H](C(=O)N1CCC[C@H]1C(N)=O)[C@@H](C)O)[C@@H](C)O)[C@@H](C)O)[C@@H](C)O)[C@@H](C)O

- hCTR funct. EC50 (pM) [1]: 23 pM
- hAmylin-R funct. EC50 (pM) [2]: 22 pM
B6: [N-terminal(C20 diacid-gGlu), des1, 9T, 21S, 23Y, 30S, 31G]mimylin (peptide)
peptide: {C20 diacid-γGlu}-ASELSTATLGRLSAELHELSTYPRTETGSGSP-NH2
SMILES: CC(C)C[C@H](NC(=O)[C@H](CCCNC(=N)N)NC(=O)CNC(=O)[C@H](CC(C)C)NC(=O)[C@@H](NC(=O)[C@H](C)NC(=O)[C@@H](NC(=O)[C@H](CO)NC(=O)[C@H](CC(C)C)NC(=O)[C@H](CCC(=O)O)NC(=O)[C@H](CO)NC(=O)[C@H](C)NC(=O)CC[C@H](NC(=O)CCCCCCCCCCCCCCCCCCC(=O)O)C(=O)O)[C@@H](C)O)[C@@H](C)O)C(=O)N[C@@H](CO)C(=O)N[C@@H](C)C(=O)N[C@@H](CCC(=O)O)C(=O)N[C@@H](CC(C)C)C(=O)N[C@@H](Cc1c[nH]cn1)C(=O)N[C@@H](CCC(=O)O)C(=O)N[C@@H](CC(C)C)C(=O)N[C@@H](CO)C(=O)N[C@H](C(=O)N[C@@H](Cc1ccc(O)cc1)C(=O)N1CCC[C@H]1C(=O)N[C@@H](CCCNC(=N)N)C(=O)N[C@H](C(=O)N[C@@H](CCC(=O)O)C(=O)N[C@H](C(=O)NCC(=O)N[C@@H](CO)C(=O)NCC(=O)N[C@@H](CO)C(=O)N1CCC[C@H]1C(N)=O)[C@@H](C)O)[C@@H](C)O)[C@@H](C)O

- hCTR funct. EC50 (pM) [1]: 28 pM
- hAmylin-R funct. EC50 (pM) [2]: 47 pM
B7: [N-terminal(C20 diacid-gGlu), des1, 4G, 9V, 23Y, 30S, 31G, 32T]mimylin (peptide)
peptide: {C20 diacid-γGlu}-ASGLSTAVLGRLSAELHELATYPRTETGSGTP-NH2
SMILES: CC(C)C[C@H](NC(=O)CNC(=O)[C@H](CO)NC(=O)[C@H](C)NC(=O)CC[C@H](NC(=O)CCCCCCCCCCCCCCCCCCC(=O)O)C(=O)O)C(=O)N[C@@H](CO)C(=O)N[C@H](C(=O)N[C@@H](C)C(=O)N[C@H](C(=O)N[C@@H](CC(C)C)C(=O)NCC(=O)N[C@@H](CCCNC(=N)N)C(=O)N[C@@H](CC(C)C)C(=O)N[C@@H](CO)C(=O)N[C@@H](C)C(=O)N[C@@H](CCC(=O)O)C(=O)N[C@@H](CC(C)C)C(=O)N[C@@H](Cc1c[nH]cn1)C(=O)N[C@@H](CCC(=O)O)C(=O)N[C@@H](CC(C)C)C(=O)N[C@@H](C)C(=O)N[C@H](C(=O)N[C@@H](Cc1ccc(O)cc1)C(=O)N1CCC[C@H]1C(=O)N[C@@H](CCCNC(=N)N)C(=O)N[C@H](C(=O)N[C@@H](CCC(=O)O)C(=O)N[C@H](C(=O)NCC(=O)N[C@@H](CO)C(=O)NCC(=O)N[C@H](C(=O)N1CCC[C@H]1C(N)=O)[C@@H](C)O)[C@@H](C)O)[C@@H](C)O)[C@@H](C)O)C(C)C)[C@@H](C)O

Further lines, the binder ahead of its results:

B1: [N-terminal(C18 diacid), 9V]mimylin (peptide)
peptide: {C18 diacid}-EASELSTAVLGRLSAELHELATLPRTETGPESP-NH2
SMILES: CC(C)C[C@H](NC(=O)[C@H](CCC(=O)O)NC(=O)[C@H](Cc1c[nH]cn1)NC(=O)[C@H](CC(C)C)NC(=O)[C@H](CCC(=O)O)NC(=O)[C@H](C)NC(=O)[C@H](CO)NC(=O)[C@H](CC(C)C)NC(=O)[C@H](CCCNC(=N)N)NC(=O)CNC(=O)[C@H](CC(C)C)NC(=O)[C@@H](NC(=O)[C@H](C)NC(=O)[C@@H](NC(=O)[C@H](CO)NC(=O)[C@H](CC(C)C)NC(=O)[C@H](CCC(=O)O)NC(=O)[C@H](CO)NC(=O)[C@H](C)NC(=O)[C@H](CCC(=O)O)NC(=O)CCCCCCCCCCCCCCCCC(=O)O)[C@@H](C)O)C(C)C)C(=O)N[C@@H](C)C(=O)N[C@H](C(=O)N[C@@H](CC(C)C)C(=O)N1CCC[C@H]1C(=O)N[C@@H](CCCNC(=N)N)C(=O)N[C@H](C(=O)N[C@@H](CCC(=O)O)C(=O)N[C@H](C(=O)NCC(=O)N1CCC[C@H]1C(=O)N[C@@H](CCC(=O)O)C(=O)N[C@@H](CO)C(=O)N1CCC[C@H]1C(N)=O)[C@@H](C)O)[C@@H](C)O)[C@@H](C)O
- hCTR funct. EC50 (pM) [1]: 9 pM
- hAmylin-R funct. EC50 (pM) [2]: 12 pM

B5: [N-terminal(C20 diacid-gGlu), des1, 9S, 23Y, 30S, 31G, 33Y]mimylin (peptide)
peptide: {C20 diacid-γGlu}-ASELSTASLGRLSAELHELATYPRTETGSGSY-NH2
SMILES: CC(C)C[C@H](NC(=O)[C@H](CO)NC(=O)[C@H](C)NC(=O)[C@@H](NC(=O)[C@H](CO)NC(=O)[C@H](CC(C)C)NC(=O)[C@H](CCC(=O)O)NC(=O)[C@H](CO)NC(=O)[C@H](C)NC(=O)CC[C@H](NC(=O)CCCCCCCCCCCCCCCCCCC(=O)O)C(=O)O)[C@@H](C)O)C(=O)NCC(=O)N[C@@H](CCCNC(=N)N)C(=O)N[C@@H](CC(C)C)C(=O)N[C@@H](CO)C(=O)N[C@@H](C)C(=O)N[C@@H](CCC(=O)O)C(=O)N[C@@H](CC(C)C)C(=O)N[C@@H](Cc1c[nH]cn1)C(=O)N[C@@H](CCC(=O)O)C(=O)N[C@@H](CC(C)C)C(=O)N[C@@H](C)C(=O)N[C@H](C(=O)N[C@@H](Cc1ccc(O)cc1)C(=O)N1CCC[C@H]1C(=O)N[C@@H](CCCNC(=N)N)C(=O)N[C@H](C(=O)N[C@@H](CCC(=O)O)C(=O)N[C@H](C(=O)NCC(=O)N[C@@H](CO)C(=O)NCC(=O)N[C@@H](CO)C(=O)N[C@@H](Cc1ccc(O)cc1)C(N)=O)[C@@H](C)O)[C@@H](C)O)[C@@H](C)O
- hCTR funct. EC50 (pM) [1]: 41 pM
- hAmylin-R funct. EC50 (pM) [2]: 37 pM

Binder: {C18 diacid-γGlu}-ASELTTAVLGRLSAELHELATLPRTETGSGTP-NH2 [[N-terminal(C18 diacid-gGlu), des1, 6T, 9V, 30S, 31G, 32T]mimylin]
- hCTR funct. EC50 (pM) [1]: 30 pM
- hAmylin-R funct. EC50 (pM) [2]: 42 pM

Binder: {C18 diacid-γGlu}-ASELTTAVLGRLSAELHELATLPRTETGTGTP-NH2 [[N-terminal(C18 diacid-gGlu), des1, 6T, 9V, 30T, 31G, 32T]mimylin]
- hCTR funct. EC50 (pM) [1]: 32 pM
- hAmylin-R funct. EC50 (pM) [2]: 65 pM

From patent US20160272683A1 (Novo Nordisk, published 2016)
